Experimental data: PMC10023680 (2023)

B1: GST-tagged ELMO1-RBD (residues 1-113), wild-type (domain or fragment)
chain: MPPPADIVKVAIEWPGAYPKLMEIDQKKPLSAIIKEVCDGWSLANHEYFALQHADSSNFYITEKNRNEIKNGTILRLTTSPAQNAQQLHERIQSSSMDAKLEALKDLASLSRD
B2: RhoG (residues 1-184) (domain or fragment)
chain: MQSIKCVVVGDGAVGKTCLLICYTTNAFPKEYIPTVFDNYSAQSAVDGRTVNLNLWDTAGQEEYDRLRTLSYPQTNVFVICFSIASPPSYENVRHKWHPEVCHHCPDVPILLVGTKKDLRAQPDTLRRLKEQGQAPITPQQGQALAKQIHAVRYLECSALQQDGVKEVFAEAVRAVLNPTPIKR

Key:
Assay in all cases: SPR
RhoG (residues 1-184) = target: B2
[1] = target: GST-tagged ELMO1-RBD (residues 1-113) K20E (human, UniProt Q92556 1-113, K20E)
[2] = target: GST-tagged ELMO1-RBD (residues 1-113) Y18A (human, UniProt Q92556 1-113, Y18A)

RhoG (residues 1-184), sequence (P84095 1-184): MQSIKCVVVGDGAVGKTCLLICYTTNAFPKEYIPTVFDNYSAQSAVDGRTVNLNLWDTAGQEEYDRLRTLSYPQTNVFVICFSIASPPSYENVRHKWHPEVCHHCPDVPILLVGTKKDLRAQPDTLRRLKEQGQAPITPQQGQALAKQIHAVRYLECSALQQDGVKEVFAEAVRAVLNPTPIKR

Row | Binder | Kd (RhoG (residues 1-184)) [µM] | Kd [1] [µM] | Kd [2] [µM]
1 | B1 | 8.4 | – | –
2 | B2 | – | 18.2 | 19.3
